Experimental data: article PMC11077067, “Protein G-quadruplex interactions and their effects on phase transitions and protein aggregation”

Assays:
[1] = target: T1, Znf706 N-terminal peptide (Homo sapiens, UniProt Q9Y5V0 1-35); test: fluorescence polarization; 100 mM KCl; range over three G4s; FP/anisotropy: 20 mM NaPi, 100 mM KCl, 0.05% NaN3, pH 7.4, 25 C (LiCl variant: 20 mM Tris-HCl, 100 mM LiCl, pH 7.4; NaCl variant: 20 mM NaPi, 100 mM NaCl, pH 7.4); NMR: 20 mM NaPi, 100 mM KCl, 7.5% D2O, pH 7.4, 4-50 C; settings: label: 5' 6-FAM
T1 chain: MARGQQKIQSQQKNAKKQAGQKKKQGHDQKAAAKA

Znf706 [2] = target: T2, Znf706 (Homo sapiens, UniProt Q9Y5V0 1-76); test: fluorescence polarization; 100 mM KCl; range over all G4s; less strong; exact value in figure; FP/anisotropy: 20 mM NaPi, 100 mM KCl, 0.05% NaN3, pH 7.4, 25 C (LiCl variant: 20 mM Tris-HCl, 100 mM LiCl, pH 7.4; NaCl variant: 20 mM NaPi, 100 mM NaCl, pH 7.4); NMR: 20 mM NaPi, 100 mM KCl, 7.5% D2O, pH 7.4, 4-50 C; settings: protein: recombinant; tags: none (His6-SUMO cleaved); chain copies: 2; label: 5' 6-FAM; hybrid G4
T2 sequence: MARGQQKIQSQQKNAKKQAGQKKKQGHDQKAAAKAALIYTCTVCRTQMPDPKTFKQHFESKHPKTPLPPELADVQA

Znf706 [3] = target: T2, Znf706; test: MST; range over all G4s; strong; exact value in figure; FP/anisotropy: 20 mM NaPi, 100 mM KCl, 0.05% NaN3, pH 7.4, 25 C (LiCl variant: 20 mM Tris-HCl, 100 mM LiCl, pH 7.4; NaCl variant: 20 mM NaPi, 100 mM NaCl, pH 7.4); NMR: 20 mM NaPi, 100 mM KCl, 7.5% D2O, pH 7.4, 4-50 C; settings: protein: recombinant; tags: none (His6-SUMO cleaved); chain copies: 2; label: 5' 6-FAM; parallel G4
Znf706 [4] = target: T2, Znf706; test: MST; range over all G4s; less strong; exact value in figure; FP/anisotropy: 20 mM NaPi, 100 mM KCl, 0.05% NaN3, pH 7.4, 25 C (LiCl variant: 20 mM Tris-HCl, 100 mM LiCl, pH 7.4; NaCl variant: 20 mM NaPi, 100 mM NaCl, pH 7.4); NMR: 20 mM NaPi, 100 mM KCl, 7.5% D2O, pH 7.4, 4-50 C; settings: protein: recombinant; tags: none (His6-SUMO cleaved); chain copies: 2; label: 5' 6-FAM; hybrid G4
Znf706 [5] = target: T2, Znf706; test: MST; range over all G4s; weakest; exact value in figure; FP/anisotropy: 20 mM NaPi, 100 mM KCl, 0.05% NaN3, pH 7.4, 25 C (LiCl variant: 20 mM Tris-HCl, 100 mM LiCl, pH 7.4; NaCl variant: 20 mM NaPi, 100 mM NaCl, pH 7.4); NMR: 20 mM NaPi, 100 mM KCl, 7.5% D2O, pH 7.4, 4-50 C; settings: protein: recombinant; tags: none (His6-SUMO cleaved); chain copies: 2; label: 5' 6-FAM
Znf706 A2C-AF488 = target: T3, Znf706 A2C-AF488 (Homo sapiens, UniProt Q9Y5V0 1-76, A2C); test: fluorescence anisotropy; FP/anisotropy: 20 mM NaPi, 100 mM KCl, 0.05% NaN3, pH 7.4, 25 C (LiCl variant: 20 mM Tris-HCl, 100 mM LiCl, pH 7.4; NaCl variant: 20 mM NaPi, 100 mM NaCl, pH 7.4); NMR: 20 mM NaPi, 100 mM KCl, 7.5% D2O, pH 7.4, 4-50 C; settings: protein: recombinant, tags: none (His6-SUMO cleaved), AF488 label
T3 sequence: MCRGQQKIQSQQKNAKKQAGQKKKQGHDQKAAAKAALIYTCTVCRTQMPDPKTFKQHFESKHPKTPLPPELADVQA

Znf706 A2C-MTSL = target: T4, Znf706 A2C-MTSL (Homo sapiens, UniProt Q9Y5V0 1-76, A2C); test: PRE NMR; 2:1 protein:DNA, 100 mM KCl, 4 C; FP/anisotropy: 20 mM NaPi, 100 mM KCl, 0.05% NaN3, pH 7.4, 25 C (LiCl variant: 20 mM Tris-HCl, 100 mM LiCl, pH 7.4; NaCl variant: 20 mM NaPi, 100 mM NaCl, pH 7.4); NMR: 20 mM NaPi, 100 mM KCl, 7.5% D2O, pH 7.4, 4-50 C; settings: protein: recombinant; tags: none (His6-SUMO cleaved); MTSL spin label; parallel G4
T4 sequence: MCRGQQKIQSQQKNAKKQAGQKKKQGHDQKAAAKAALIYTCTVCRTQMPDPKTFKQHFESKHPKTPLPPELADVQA

Znf706 [6] = target: T2, Znf706; test: NMR; 100 mM KCl; FP/anisotropy: 20 mM NaPi, 100 mM KCl, 0.05% NaN3, pH 7.4, 25 C (LiCl variant: 20 mM Tris-HCl, 100 mM LiCl, pH 7.4; NaCl variant: 20 mM NaPi, 100 mM NaCl, pH 7.4); NMR: 20 mM NaPi, 100 mM KCl, 7.5% D2O, pH 7.4, 4-50 C; settings: protein: recombinant; tags: none (His6-SUMO cleaved); chain copies: 2; hairpin
Znf706 [7] = target: T2, Znf706; test: NMR; 37 C; FP/anisotropy: 20 mM NaPi, 100 mM KCl, 0.05% NaN3, pH 7.4, 25 C (LiCl variant: 20 mM Tris-HCl, 100 mM LiCl, pH 7.4; NaCl variant: 20 mM NaPi, 100 mM NaCl, pH 7.4); NMR: 20 mM NaPi, 100 mM KCl, 7.5% D2O, pH 7.4, 4-50 C; settings: protein: recombinant; tags: none (His6-SUMO cleaved); chain copies: 2; hairpin
Znf706 [8] = target: T2, Znf706; test: NMR; competitive titration with Bcl2SH G4; FP/anisotropy: 20 mM NaPi, 100 mM KCl, 0.05% NaN3, pH 7.4, 25 C (LiCl variant: 20 mM Tris-HCl, 100 mM LiCl, pH 7.4; NaCl variant: 20 mM NaPi, 100 mM NaCl, pH 7.4); NMR: 20 mM NaPi, 100 mM KCl, 7.5% D2O, pH 7.4, 4-50 C; settings: protein: recombinant; tags: none (His6-SUMO cleaved); chain copies: 2; blunt
Znf706 [9] = target: T2, Znf706; test: fluorescence polarization; 100 mM KCl; range over all G4s; strong; exact value in figure; FP/anisotropy: 20 mM NaPi, 100 mM KCl, 0.05% NaN3, pH 7.4, 25 C (LiCl variant: 20 mM Tris-HCl, 100 mM LiCl, pH 7.4; NaCl variant: 20 mM NaPi, 100 mM NaCl, pH 7.4); NMR: 20 mM NaPi, 100 mM KCl, 7.5% D2O, pH 7.4, 4-50 C; settings: protein: recombinant; tags: none (His6-SUMO cleaved); chain copies: 2; label: 5' 6-FAM; parallel G4

B1: Bcl2WT, 6-FAM (structured_DNA)
DNA: GGGCGCGGGAGGAAGGGGGCGGG
[1]; hybrid G4
  Kd: ~17.2 µM
Znf706 [2]
  Kd: ~4.47 µM

B2: TERRA, 6-FAM (structured_RNA)
RNA: UAGGGUUAGGGUUAGGGUUAGGG
Znf706 [3]
  Kd: ~4.47 µM

B3: hTel, 6-FAM (structured_DNA)
DNA: TTGGGTTAGGGTTAGGGTTAGGGA
Znf706 [4]
  Kd: ~4.47 µM

B4: Kit*, 6-FAM (structured_DNA)
DNA: GGCGAGGAGGGGCGTGGCCGGC
Znf706 [5]
  Kd: ~4.47 µM

B5: cMyc (Pu19_A2A11) (structured_DNA)
DNA: TAGGGAGGGTAGGGAGGGT
Znf706 A2C-AF488; parallel G4
  binding result: binds
Znf706 A2C-MTSL
  binding result: binds

B6: G4C2 4-repeat (structured_DNA)
DNA: GGGGCCGGGGCCGGGGCCGGGGCC
Znf706 A2C-AF488
  binding result: binds

B7: GGA hairpin (structured_DNA)
DNA: GGAAGGAAGGTTTTCCTTCCTTCC
Znf706 [6]
  binding result: no binding

B8: GGGG hairpin (structured_DNA)
DNA: GGTTGGGGTTGTTTTCAACCCCAACC
Znf706 [7]
  binding result: no binding

B9: Bcl2SH duplex (dsDNA)
DNA 1: AGGAGGGGGGCGGGA
DNA 2: TCCCGCCCCCCTCCT
Znf706 [8]
  binding result: no binding

B10: cMyc (Pu19_A2A11), 6-FAM (structured_DNA)
DNA: TAGGGAGGGTAGGGAGGGT
[1]; parallel G4
  Kd: ~17.2 µM
Znf706 [9]
  Kd: ~4.47 µM

B11: Bcl2SH, 6-FAM (structured_DNA)
DNA: AGGAGGGGGGCGGGA
[1]; parallel G4
  Kd: ~17.2 µM
Znf706 [9]
  Kd: ~4.47 µM
